# Assay results reported in patent US9266930.
# Where two headings read alike, the source gives them in different places.
# Experiments:
# [1] = molecular target: HLA-DR1 (DRB1*0101) (human); assay: competition with 125I-labeled probe peptide on purified HLA-DR, gel filtration
# [2] = molecular target: HLA-DR5w11 (DRB1*1101) (human); assay: as above
# [3] = molecular target: T1, HLA-DR4w4 (DRB1*0401) (human); assay: as above
# T1 chain 1: not shown
# T1 chain 2: not shown
# [4] = molecular target: HLA-DR2w2β2 (DRB5*0101) (human); assay: as above
# [5] = molecular target: HLA-DR4w15 (DRB1*0405) (human); assay: as above
# [6] = molecular target: HLA-DR3 (DRB1*0301) (human); assay: as above
# [7] = molecular target: HLA-A*2401 (as the column head of Table X prints it), purified HLA class I molecule (human); assay: competition with 125I-labelled standard peptide for purified HLA, gel filtration
# HLA-A*0206 (human) = assay: competition with 125I probe peptide for purified HLA, gel filtration
# HLA-A*1101 (Human) [8] = assay: competition with 125I-labelled probe peptide for purified HLA-A*1101
# [9] = molecular target: T2, HLA-DR5w12 (DRB1*1201) (human)
# T2 chain 1: not shown
# T2 chain 2: not shown
# [10] = molecular target: T3, HLA-DR7 (DRB1*0701) (human)
# T3 chain 1: not shown
# T3 chain 2: not shown
# [11] = molecular target: T4, HLA-DR6w19 (DRB1*1302) (human)
# T4 chain 1: not shown
# T4 chain 2: not shown
# [12] = molecular target: T5, HLA-DR9 (DRB1*0901) (human)
# T5 chain 1: not shown
# T5 chain 2: not shown
# HLA-A*0203 (human) = assay: competition with 125I probe peptide for purified HLA, gel filtration
# HLA-A*0201 (human) [13] = assay: as above
# HLA-A*1101 (human) [14] = assay: competition with 125I-labeled probe peptide for purified HLA, gel filtration; details: scale: ratio
# HLA-A*0301 (human) [15] = assay: as above; details: scale: ratio
# HLA-A*6801 (human) [16] = assay: as above; details: scale: ratio
# HLA-A*3301 (human) [17] = assay: as above; details: scale: ratio
# HLA-B*0702 (human) [18] = assay: competition with 125I probe peptide for purified HLA, gel filtration
# HLA-B*5401 (human) = assay: as above
# HLA-A*0201 (Human) [19] = molecular target: HLA-A*0201 (Human)
# [20] = molecular target: T6, HLA-DR5w11 (DRB1*1101) (human)
# T6 chain 1: not shown
# T6 chain 2: not shown
# [21] = molecular target: T7, HLA-DR3 (DRB1*0301) (human)
# T7 chain 1: not shown
# T7 chain 2: not shown
# [22] = molecular target: T1, HLA-DR4w4 (DRB1*0401) (human)
# [23] = molecular target: T8, HLA-DR2w2β2 (DRB5*0101) (human)
# T8 chain 1: not shown
# T8 chain 2: not shown
# [24] = molecular target: T9, HLA-DR4w15 (DRB1*0405) (human)
# T9 chain 1: not shown
# T9 chain 2: not shown
# [25] = molecular target: T10, HLA-DR2w2β1 (DRB1*1501) (human)
# T10 chain 1: not shown
# T10 chain 2: not shown
# [26] = molecular target: T11, HLA-DR1 (DRB1*0101) (human)
# T11 chain 1: not shown
# T11 chain 2: not shown
# HLA-A*3101 (human) = assay: competition with 125I-labelled standard peptide for purified HLA, gel filtration
# HLA-A*1101 (human) [27] = assay: as above
# HLA-A*6801 (human) [28] = assay: as above
# HLA-A*3301 (human) [29] = assay: as above
# [30] = molecular target: T6, HLA-DR5w11 (DRB1*1101) (human); assay: inhibition of 125I-probe peptide binding to purified HLA-DR, gel filtration
# [31] = molecular target: T7, HLA-DR3 (DRB1*0301) (human); assay: as above
# [32] = molecular target: T1, HLA-DR4w4 (DRB1*0401) (human); assay: as above
# [33] = molecular target: T8, HLA-DR2w2β2 (DRB5*0101) (human); assay: as above
# [34] = molecular target: T9, HLA-DR4w15 (DRB1*0405) (human); assay: as above
# [35] = molecular target: T10, HLA-DR2w2β1 (DRB1*1501) (human); assay: as above
# [36] = molecular target: T11, HLA-DR1 (DRB1*0101) (human); assay: as above
# HLA-A*6802 (human) = assay: competition with 125I probe peptide for purified HLA, gel filtration
# HLA-B*0702 (Human) [37] = molecular target: HLA-B*0702 (Human)
# HLA-A*0301 (human) [38] = assay: competition with 125I-labelled standard peptide for purified HLA, gel filtration
# HLA-A*1101 (human) [39] = molecular target: HLA-A*1101 (human)
binder,measurement,setting,value
SCGVWDEWSPCSVTC (modifications not checked),binding affinity ratio (IC50 standard peptide / IC50 test peptide),[1],0.0001
same,binding affinity ratio (IC50 standard peptide / IC50 test peptide),[2],-0.0002
same,binding affinity ratio (IC50 standard peptide / IC50 test peptide),[3],-0.0009
same,binding affinity ratio (IC50 standard peptide / IC50 test peptide),[4],-0.0005
same,binding affinity ratio (IC50 standard peptide / IC50 test peptide),[5],-0.0009
VEALFQEYQCYGSSS (modifications not checked),binding affinity ratio (IC50 standard peptide / IC50 test peptide),[6],0.0082
"KYLVIVFLIF (modifications not checked) [… (Pf SSP2 position 8, 10-mer)]",binding affinity ratio (IC50 of standard peptide / IC50 of test peptide),[7],0.0003
KILSVFFLA (modifications not checked) [1167.13],IC50,HLA-A*0206 (human),8 nM
"EALFQEYQCY (modifications not checked) [… (Pf CSP 17, A11 motif peptide)]",binding affinity ratio (IC50 of standard peptide / IC50 of test peptide),HLA-A*1101 (Human) [8],0.0002
"EDNEKLRKPK (modifications not checked) [… (Pf CSP 100, A11 motif peptide)]",binding affinity ratio (IC50 of standard peptide / IC50 of test peptide),HLA-A*1101 (Human) [8],0.0002
VFNVVNSSIGLIMVL (modifications not checked),binding affinity ratio (relative to standard peptide),[9],0.0015
same,binding affinity ratio (relative to standard peptide),[10],0.18
same,binding affinity ratio (relative to standard peptide),[11],0.26
same,binding affinity ratio (relative to standard peptide),[12],0.5
FMKAVCVEV (modifications not checked) [1167.16],IC50,HLA-A*0206 (human),389 nM
same,IC50,HLA-A*0203 (human),2.9 nM
same,IC50,HLA-A*0201 (human) [13],63 nM
"VSSKKKNKK (modifications not checked) [… (P. falciparum EXP, position 33, 9 amino acids)]",binding affinity ratio (relative to standard peptide),HLA-A*1101 (human) [14],0.0002
same,binding affinity ratio (relative to standard peptide),HLA-A*0301 (human) [15],0.0001
same,binding affinity ratio (relative to standard peptide),HLA-A*6801 (human) [16],0.0002
same,binding affinity ratio (relative to standard peptide),HLA-A*3301 (human) [17],0.001
"EALFQEYQCYGSSSN (modifications not checked) [… (Pf CSP DR-supermotif 15-mer, core …), listing 1 of 2 here]",binding affinity ratio (relative to standard peptide),[9],0.0001
TPYAGEPAPF (modifications not checked) [1167.61],IC50,HLA-B*0702 (human) [18],31 nM
same,IC50,HLA-B*5401 (human),25 µM
"ILSVFFLAL (modifications not checked) [… (EXP position 3, 9 amino acids)]",binding affinity ratio (IC50 of standard peptide / IC50 of test peptide),HLA-A*0201 (Human) [19],0.0058
VFFLALFFIIFNKES (modifications not checked),binding affinity ratio (relative binding) (ratio to standard peptide),[20],-0.0005
same,binding affinity ratio (relative binding) (ratio to standard peptide),[21],-0.0043
same,binding affinity ratio (relative binding) (ratio to standard peptide),[22],0.0047
same,binding affinity ratio (relative binding) (ratio to standard peptide),[23],-0.0021
same,binding affinity ratio (relative binding) (ratio to standard peptide),[24],0.01
same,binding affinity ratio (relative binding) (ratio to standard peptide),[25],0.018
same,binding affinity ratio (relative binding) (ratio to standard peptide),[26],0.0006
YADSAWENVK (modifications not checked),binding affinity ratio (IC50 of standard peptide / IC50 of test peptide),HLA-A*3101 (human),0.0009
same,binding affinity ratio (IC50 of standard peptide / IC50 of test peptide),HLA-A*1101 (human) [27],0.0002
same,binding affinity ratio (IC50 of standard peptide / IC50 of test peptide),HLA-A*6801 (human) [28],0.0077
same,binding affinity ratio (IC50 of standard peptide / IC50 of test peptide),HLA-A*3301 (human) [29],0.0009
RHPFKIGSSDPADNA (modifications not checked),binding affinity ratio (relative binding) (ratio to standard peptide),[30],0.0056
same,binding affinity ratio (relative binding) (ratio to standard peptide),[31],-0.0008
same,binding affinity ratio (relative binding) (ratio to standard peptide),[32],0.47
same,binding affinity ratio (relative binding) (ratio to standard peptide),[33],-0.0005
same,binding affinity ratio (relative binding) (ratio to standard peptide),[34],0.0029
same,binding affinity ratio (relative binding) (ratio to standard peptide),[35],-0.0004
same,binding affinity ratio (relative binding) (ratio to standard peptide),[36],0.0044
ILSVSSFLFV (modifications not checked) [1167.18],IC50,HLA-A*6802 (human),2100 nM
same,IC50,HLA-A*0203 (human),19 nM
"NPEDDREENF (modifications not checked) [… (P. falciparum SSP2, position 382)]",binding affinity ratio (IC50 of standard peptide / IC50 of test peptide),HLA-B*0702 (Human) [37],0.0001
"KLATSVLAGL (modifications not checked) [… (EXP position 75, 10 amino acids)]",binding affinity ratio (IC50 of standard peptide / IC50 of test peptide),HLA-A*0201 (Human) [19],0.0047
QSQDNNGNR (modifications not checked),binding affinity ratio (IC50 of standard peptide / IC50 of test peptide),HLA-A*3101 (human),0.002
same,binding affinity ratio (IC50 of standard peptide / IC50 of test peptide),HLA-A*1101 (human) [27],0.0002
same,binding affinity ratio (IC50 of standard peptide / IC50 of test peptide),HLA-A*0301 (human) [38],0.0005
same,binding affinity ratio (IC50 of standard peptide / IC50 of test peptide),HLA-A*3301 (human) [29],0.0093
"VPLAMKLI (modifications not checked) [VPLAMKLI (P. falciparum SSP2, position 69)]",binding affinity ratio (IC50 of standard peptide / IC50 of test peptide),HLA-B*0702 (Human) [37],0.0001
GLIMVLSFL (modifications not checked) [1167.08],IC50,HLA-A*0201 (human) [13],22 nM
NSSIGLIMVLSFLFL (modifications not checked),binding affinity ratio (relative binding) (ratio to standard peptide),[20],-0.0005
same,binding affinity ratio (relative binding) (ratio to standard peptide),[23],0.0024
same,binding affinity ratio (relative binding) (ratio to standard peptide),[24],0.0035
same,binding affinity ratio (relative binding) (ratio to standard peptide),[25],0.025
same,binding affinity ratio (relative binding) (ratio to standard peptide),[26],0.004
FIIFNKESLAEKTNK (modifications not checked),binding affinity ratio (IC50 standard peptide / IC50 test peptide),[6],0.004
"EALFQEYQCYGSSSN (modifications not checked) [… (P. falciparum CSP 15-mer, core …), listing 2 of 2 here]",binding affinity ratio (relative binding) (ratio to standard peptide),[30],-0.0002
same,binding affinity ratio (relative binding) (ratio to standard peptide),[32],0.0053
same,binding affinity ratio (relative binding) (ratio to standard peptide),[33],-0.0005
same,binding affinity ratio (relative binding) (ratio to standard peptide),[34],-0.0009
same,binding affinity ratio (relative binding) (ratio to standard peptide),[36],0.0001
"PYAGEPAPF (modifications not checked) [… (Pf SSP2 position 528, 9-mer)]",binding affinity ratio (IC50 of standard peptide / IC50 of test peptide),[7],0.037
"GTGSGVSSKK (modifications not checked) [… (P. falciparum EXP-1, position 28)]",binding affinity ratio (IC50 of standard peptide / IC50 of test peptide),HLA-A*1101 (human) [39],0.034
